Assay results reported in the Immune Epitope Database (IEDB).

Assays:
HLA-A*26:01 [1] = assay: IEDB peptide-MHC binding, purified MHC/competitive/fluorescence; filed as Kd, often an IC50 or EC50 that approximates it; ≥ and ≤ were set here for values at or beyond the usual limits of such assays
HLA-B*27:03 = assay: as above; settings: source organism: Neembucu hantavirus
HLA-B*57:01 = assay: as above; settings: source organism: Neembucu hantavirus
HLA-B*39:01 = assay: as above
HLA-B*46:01 = assay: as above; settings: source organism: Neembucu hantavirus
HLA-B*15:17 = assay: as above; settings: source organism: Neembucu hantavirus
HLA-B*51:01 = assay: as above; settings: source organism: Neembucu hantavirus
HLA-A*02:01 [2] = assay: as above; settings: source organism: Neembucu hantavirus
HLA-B*18:01 = assay: as above; settings: source organism: Neembucu hantavirus
HLA-A*02:12 = assay: IEDB peptide-MHC binding, purified MHC/direct/fluorescence; filed as Kd, often an IC50 or EC50 that approximates it; ≥ and ≤ were set here for values at or beyond the usual limits of such assays; settings: source organism: Lechiguanas virus
HLA-A*68:02 = assay: as above; settings: source organism: Lechiguanas virus
HLA-A*03:01 [3] = assay: as above
HLA-A*02:19 = assay: as above; settings: source organism: Lechiguanas virus
HLA-A*23:01 = assay: as above; settings: source organism: Lechiguanas virus
HLA-A*02:03 [4] = assay: as above; settings: source organism: Lechiguanas virus
HLA-A*01:01 [5] = assay: as above
HLA-A*24:03 = assay: as above
HLA-B*40:01 [6] = assay: IEDB peptide-MHC binding, purified MHC/competitive/fluorescence; filed as Kd, often an IC50 or EC50 that approximates it; ≥ and ≤ were set here for values at or beyond the usual limits of such assays
HLA-A*30:01 [7] = assay: as above; settings: source organism: Encephalitozoon cuniculi GB-M1
HLA-A*01:01 [8] = assay: as above
HLA-B*58:01 [9] = assay: as above
HLA-B*15:01 [10] = assay: IEDB peptide-MHC binding, purified MHC/direct/fluorescence; filed as Kd, often an IC50 or EC50 that approximates it; ≥ and ≤ were set here for values at or beyond the usual limits of such assays
HLA-A*26:01 [11] = assay: as above
HLA-A*11:01 = assay: as above
HLA-A*69:01 = assay: as above
HLA-B*44:02 = assay: as above
HLA-B*08:01 = assay: as above
HLA-A*30:01 [12] = assay: as above
HLA-B*27:05 = assay: as above
HLA-A*31:01 = assay: as above
HLA-A*02:01 [13] = assay: as above
HLA-B*40:01 [14] = assay: as above
HLA-B*07:02 = assay: as above
HLA-B*58:01 [15] = assay: as above
HLA-B*35:01 = assay: as above
HLA-B*15:01 [16] = assay: IEDB peptide-MHC binding, purified MHC/competitive/fluorescence; filed as Kd, often an IC50 or EC50 that approximates it; ≥ and ≤ were set here for values at or beyond the usual limits of such assays; settings: source organism: Yersinia pestis Nepal516
HLA-A*03:01 [17] = assay: as above; settings: source organism: Yersinia pestis Nepal516
HLA-A*02:17 = assay: IEDB peptide-MHC binding, purified MHC/competitive/radioactivity; filed as Kd, often an IC50 or EC50 that approximates it; ≥ and ≤ were set here for values at or beyond the usual limits of such assays; settings: source organism: Dengue virus 3 China/80-2/1980
HLA-A*02:01 [18] = assay: as above; settings: source organism: Dengue virus 3 China/80-2/1980
HLA-A*02:03 [19] = assay: as above; settings: source organism: Dengue virus 3 Martinique/1243/1999
HLA-A*02:06 = assay: as above; settings: source organism: Dengue virus 3 Martinique/1243/1999
HLA-A*32:01 = assay: as above; settings: source organism: Dengue virus 3 Singapore/8120/1995
[20] = source organism: Neembucu hantavirus
[21] = source organism: Lechiguanas virus
[22] = source organism: Escherichia coli 101-1
[23] = source organism: Yersinia pestis Nepal516
[24] = source organism: Salmonella enterica subsp. enterica serovar Typhi
[25] = source organism: Vibrio cholerae
[26] = source organism: Vibrio vulnificus
[27] = source organism: Corynebacterium glutamicum

Sequence: ETESATLFT
- Kd (HLA-A*26:01 [1]; [20]): ≥ 20 µM
- Kd (HLA-B*27:03): ≥ 20 µM
- Kd (HLA-B*57:01): ≥ 20 µM
- Kd (HLA-B*39:01; [20]): ≥ 20 µM
- Kd (HLA-B*46:01): ≥ 20 µM
- Kd (HLA-B*15:17): ≥ 20 µM
- Kd (HLA-B*51:01): ≥ 20 µM
- Kd (HLA-A*02:01 [2]): ≥ 20 µM
- Kd (HLA-B*18:01): ≥ 20 µM
- Kd (HLA-A*02:12): ≥ 20 µM
- Kd (HLA-A*68:02): ≥ 20 µM
- Kd (HLA-A*03:01 [3]; [21]): ≥ 20 µM
- Kd (HLA-A*02:19): ≥ 20 µM
- Kd (HLA-A*23:01): ≥ 20 µM
- Kd (HLA-A*02:03 [4]): ≥ 20 µM
- Kd (HLA-A*01:01 [5]; [20]): 0.592 µM
- Kd (HLA-A*24:03; [21]): ≥ 20 µM

Sequence: FEANALSVI
- Kd (HLA-B*39:01; [22]): 3.82 µM
- Kd (HLA-B*40:01 [6]; [22]): 0.0097 µM

Sequence: GEMLVATSL
- Kd (HLA-B*40:01 [6]; [23]): 0.0042 µM

Sequence: GEVRGYLVK
- Kd (HLA-B*40:01 [6]; source organism: Escherichia coli O139:H28 str. E24377A): ≥ 20 µM

Sequence: GGRKLKLTK
- Kd (HLA-A*30:01 [7]): 0.246 µM
- Kd (HLA-A*01:01 [8]; source organism: Encephalitozoon cuniculi GB-M1): ≥ 20 µM

Sequence: HEAEYNLSL
- Kd (HLA-B*39:01; [24]): 0.0019 µM
- Kd (HLA-B*40:01 [6]; [24]): 0.0046 µM

Sequence: IASLTGWQW
- Kd (HLA-B*58:01 [9]; source organism: Mycobacterium tuberculosis variant bovis BCG str. Pasteur 1173P2): 0.0006 µM
- Kd (HLA-B*15:01 [10]; source organism: Mycobacterium tuberculosis str. Haarlem): 16 µM

Sequence: IELITTIGF
- Kd (HLA-B*40:01 [6]; source organism: Bacillus cereus 03BB102): 0.0532 µM

Sequence: IPISGRITA
- Kd (HLA-A*26:01 [11]; [25]): ≥ 20 µM
- Kd (HLA-A*11:01; [25]): ≥ 20 µM
- Kd (HLA-A*69:01; [25]): ≥ 20 µM
- Kd (HLA-B*44:02; [25]): ≥ 20 µM
- Kd (HLA-B*15:01 [10]; [25]): ≥ 20 µM
- Kd (HLA-A*03:01 [3]; [25]): ≥ 20 µM
- Kd (HLA-B*08:01; [25]): ≥ 20 µM
- Kd (HLA-A*30:01 [12]; [25]): ≥ 20 µM
- Kd (HLA-B*27:05; [25]): ≥ 20 µM
- Kd (HLA-A*01:01 [5]; [25]): ≥ 20 µM
- Kd (HLA-A*31:01; [25]): ≥ 20 µM
- Kd (HLA-A*02:01 [13]; [25]): ≥ 20 µM
- Kd (HLA-B*40:01 [14]; [25]): ≥ 20 µM
- Kd (HLA-B*07:02; [25]): 0.0244 µM
- Kd (HLA-B*58:01 [15]; [25]): ≥ 20 µM
- Kd (HLA-A*24:03; [25]): ≥ 20 µM
- Kd (HLA-B*35:01; [25]): 0.0172 µM

Sequence: KTAVVVTRY
- Kd (HLA-B*15:01 [16]): 0.674 µM
- Kd (HLA-A*03:01 [17]): 0.676 µM
- Kd (HLA-A*01:01 [8]; [23]): 0.455 µM
- Kd (HLA-B*58:01 [9]; [23]): 0.0362 µM

Sequence: KVMALPIPH
- Kd (HLA-A*26:01 [11]; [26]): ≥ 20 µM
- Kd (HLA-A*11:01; [26]): 0.0247 µM
- Kd (HLA-A*69:01; [26]): ≥ 20 µM
- Kd (HLA-B*44:02; [26]): ≥ 20 µM
- Kd (HLA-B*15:01 [10]; [26]): 0.452 µM
- Kd (HLA-A*03:01 [3]; [26]): 0.174 µM
- Kd (HLA-B*08:01; [26]): ≥ 20 µM
- Kd (HLA-A*30:01 [12]; [26]): 5.28 µM
- Kd (HLA-B*27:05; [26]): ≥ 20 µM
- Kd (HLA-A*01:01 [5]; [26]): ≥ 20 µM
- Kd (HLA-A*31:01; [26]): 0.136 µM
- Kd (HLA-A*02:01 [13]; [26]): ≥ 20 µM
- Kd (HLA-B*40:01 [14]; [26]): ≥ 20 µM
- Kd (HLA-B*07:02; [26]): 9.25 µM
- Kd (HLA-B*58:01 [15]; [26]): ≥ 20 µM
- Kd (HLA-A*24:03; [26]): ≥ 20 µM
- Kd (HLA-B*35:01; [26]): 0.374 µM

Sequence: LLLGLMILLT
- Kd (HLA-A*02:17): 0.697 µM
- Kd (HLA-A*02:01 [18]): 1.66 µM

Sequence: MSLMTGEQF
- Kd (HLA-B*58:01 [9]; source organism: Bacillus anthracis str. A0488): 0.0165 µM

Sequence: RLITANPVV
- Kd (HLA-A*02:17): 0.52 µM
- Kd (HLA-A*02:03 [19]): 0.0363 µM
- Kd (HLA-A*02:06): 0.0651 µM

Sequence: RTLDTLALY
- Kd (HLA-A*26:01 [1]; [23]): 4.5 µM
- Kd (HLA-A*03:01 [17]): 0.132 µM
- Kd (HLA-A*01:01 [8]; [23]): 1.21 µM
- Kd (HLA-B*58:01 [9]; [23]): 0.0084 µM

Sequence: VETYVLSII
- Kd (HLA-B*40:01 [6]; source organism: Influenza A virus (A/parakeet/Chiba/1/97(H9N2))): 0.013 µM

Sequence: VLFTFVLLL
- Kd (HLA-A*32:01): 0.494 µM
- Kd (HLA-A*02:17): 0.568 µM

Sequence: YELLRYNEY
- Kd (HLA-A*26:01 [11]; [27]): ≥ 20 µM
- Kd (HLA-A*11:01; [27]): ≥ 20 µM
- Kd (HLA-A*69:01; [27]): ≥ 20 µM
- Kd (HLA-B*15:01 [10]; [27]): 0.443 µM
- Kd (HLA-A*03:01 [3]; [27]): ≥ 20 µM
- Kd (HLA-B*08:01; [27]): ≥ 20 µM
- Kd (HLA-A*30:01 [12]; [27]): ≥ 20 µM
- Kd (HLA-B*27:05; [27]): ≥ 20 µM
- Kd (HLA-A*01:01 [5]; [27]): ≥ 20 µM
- Kd (HLA-A*31:01; [27]): ≥ 20 µM
- Kd (HLA-A*02:01 [13]; [27]): ≥ 20 µM
- Kd (HLA-B*40:01 [14]; [27]): 14.3 µM
- Kd (HLA-B*58:01 [15]; [27]): ≥ 20 µM
- Kd (HLA-A*24:03; [27]): ≥ 20 µM
- Kd (HLA-B*35:01; [27]): 0.777 µM
